Results on 1 molecule are retold here after patent publication US6822075.

The target in assay [1] is Human polyclonal IgG (human). Description: affinity constant, method not stated; table prints no power of ten.
The target of assay [2] is Human polyclonal IgG (human). Description: affinity constant, method not stated; same result as the 1st table, row 8, column 7 but printed with its power of ten.

B1: Protein LG (protein)
chain: AVENKEETPETPETDSEEEVTIKANLIFANGSTQTAEFKGTFEKATSEAYAYADTLKKDNGEYTVDVADKGYTLNIKFAGKEKTPEEPKEEVTIKANLIYADGKTQTAEFKGTFEEATAEAYRYADALKKDNGEYTVDVADKGYTLNIKFAGKEKTPEEPKEEVTIKANLIYADGKTQTAEFKGTFEEATAEAYRYADLLAKENGKYTVDVADKGYTLNIKFAGKEKTPEEPKEEVTIKANLIYADGKTQTAEFKGTFAEATAEAYRYADLLAKENGKYTADLEDGGYTINIRFAGKKVDEKPEEPMDTYKLILNGKTLKGETTTEAVDAATAEKVFKQYANDNGVDGEWTYDDATKTFTVTEKPEVIDASELTPAVTTYKLVINGKTLKGETTTKAVDAETAEKAFKQYANDNGVDGVWTYDDATKTFTVTEM
With B1, the Ka is 20 M⁻¹ in assay [1] and 2e+10 M⁻¹ in assay [2].
